The record followed here is paper PMC8810855 (2022).

For test [1], the target named is T1, Arp2/3 complex (bovine brain) (bovine, UniProt P61157 1-418; A7MB62 1-394; Q58CQ2 1-372; Q3MHR7 1-300; Q3T035 1-178; Q148J6 …). The experiment in a line: ITC; ATP.
Test [2] deals with T1, Arp2/3 complex (bovine brain). The experiment in a line: ITC; ATP; second, low-affinity site (Kd2).
For test [3] the target is unchanged. The experiment in a line: ITC; ATP; high-affinity site (Kd1).

B1: Arpin_CA (Arpin residues S194-D226) (domain or fragment)
chain: SWTDNIMAQKSSKGAAAEIREQGDGAEDEEWDD
In turn, B1 registered a Kd in test [1] of 1710 nM.

B2: Hybrid_WH2_C-helix (N-WASP WH2 domain and C-helix with linker and A domain of Arpin) (other)
chain: PVSCSGRDALLDQIRQGIQLKSVADGQESTPPTPAPTSGIVGALMEVMQKRSKAIAAAEIREQGDGAEDEEWDD
Turning to B2, the Kd is 826 nM in test [2] and 36.7 nM in test [3].
